This note sets out measurements from patent US20180194839A1 (Novartis, published 2018).

Assay [1] has as its target T1, recombinant human IL-17A (SEQ ID NO: 76) (human, UniProt Q16552 24-155, limits assumed).
T1 sequence: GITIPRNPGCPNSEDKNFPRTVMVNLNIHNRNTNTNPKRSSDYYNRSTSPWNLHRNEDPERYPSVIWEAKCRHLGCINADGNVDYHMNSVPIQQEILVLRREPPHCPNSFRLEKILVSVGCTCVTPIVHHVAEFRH
In words: cell-based or functional assay.

For assay [2], the target named is T2, recombinant mouse TNFα (R&D Systems Cat#410-MT) (mouse, UniProt P06804 80-235).
T2 construct: coated at 0.5 µg/ml; also called mTNFα
T2 sequence (looked up): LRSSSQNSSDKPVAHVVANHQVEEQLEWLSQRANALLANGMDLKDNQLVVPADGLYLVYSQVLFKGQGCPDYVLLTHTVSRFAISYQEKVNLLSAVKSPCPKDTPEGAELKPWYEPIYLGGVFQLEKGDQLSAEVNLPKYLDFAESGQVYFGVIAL
Description: ELISA, coated cytokine, Ab 10 µg/ml. A general note: In an ELISA, binding on a coated surface is turned into a signal by an enzyme label.

The target of assay [3] is T3, recombinant mouse IFN-γ (R&D Systems Cat#485-MT) (mouse, UniProt P01580 23-155).
T3 construct: also called mIFN-γ
T3 sequence (looked up): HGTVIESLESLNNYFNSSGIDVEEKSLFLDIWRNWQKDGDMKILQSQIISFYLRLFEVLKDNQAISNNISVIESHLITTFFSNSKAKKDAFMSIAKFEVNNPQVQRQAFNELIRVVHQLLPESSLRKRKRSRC
Description: ELISA, coated cytokine, Ab 10 µg/ml.

Assay [4] deals with T4, recombinant mouse IL-17A (SEQ ID NO: 83) (mouse, UniProt Q62386 26-158).
T4 construct: also called mIL-17A; rmIL-17A
T4 sequence: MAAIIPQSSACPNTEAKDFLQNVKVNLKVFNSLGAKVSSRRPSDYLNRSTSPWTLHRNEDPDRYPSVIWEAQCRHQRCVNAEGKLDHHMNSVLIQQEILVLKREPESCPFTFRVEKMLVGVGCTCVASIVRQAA
In words: ELISA, coated cytokine, Ab 10 µg/ml.

Assay [5] has as its target T5, recombinant mouse IL-23 (R&D Systems Cat#1887-ML) (mouse, UniProt Q9EQ14 22-196; P43432 23-335).
T5 construct: also called mIL-23
T5 sequence (looked up) 1: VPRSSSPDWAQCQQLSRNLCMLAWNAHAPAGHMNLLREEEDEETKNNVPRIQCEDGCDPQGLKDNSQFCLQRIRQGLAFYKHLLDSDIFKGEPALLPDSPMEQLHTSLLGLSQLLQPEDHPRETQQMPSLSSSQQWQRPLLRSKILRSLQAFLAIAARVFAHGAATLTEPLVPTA
T5 sequence (looked up) 2: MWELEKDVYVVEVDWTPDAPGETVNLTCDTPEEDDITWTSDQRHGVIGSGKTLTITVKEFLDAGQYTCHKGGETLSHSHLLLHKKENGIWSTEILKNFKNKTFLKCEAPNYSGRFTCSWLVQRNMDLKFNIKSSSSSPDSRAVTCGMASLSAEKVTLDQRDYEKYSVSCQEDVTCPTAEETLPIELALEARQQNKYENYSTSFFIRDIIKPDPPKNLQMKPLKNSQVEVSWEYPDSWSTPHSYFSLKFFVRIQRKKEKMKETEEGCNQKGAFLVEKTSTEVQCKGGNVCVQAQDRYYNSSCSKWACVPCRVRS
In words: ELISA, coated cytokine, Ab 10 µg/ml.

For assay [6], the target named is T6, recombinant mouse IL-6 (R&D Systems Cat#406-ML-010/CF) (mouse, UniProt P08505 25-211).
T6 construct: coated at 0.5 µg/ml; also called mIL-6
T6 sequence (looked up): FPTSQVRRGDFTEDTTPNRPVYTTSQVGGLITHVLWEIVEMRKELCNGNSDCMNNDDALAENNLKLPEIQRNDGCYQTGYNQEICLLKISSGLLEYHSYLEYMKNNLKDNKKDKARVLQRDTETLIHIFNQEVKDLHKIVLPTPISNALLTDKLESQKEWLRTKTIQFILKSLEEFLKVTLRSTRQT
Description: ELISA, coated cytokine, Ab 10 µg/ml.

Assay [7] has as its target T7, recombinant mouse IL-18 (MBL Cat#B004-5) (mouse, UniProt P70380 36-192).
T7 construct: also called mIL-18
T7 sequence (looked up): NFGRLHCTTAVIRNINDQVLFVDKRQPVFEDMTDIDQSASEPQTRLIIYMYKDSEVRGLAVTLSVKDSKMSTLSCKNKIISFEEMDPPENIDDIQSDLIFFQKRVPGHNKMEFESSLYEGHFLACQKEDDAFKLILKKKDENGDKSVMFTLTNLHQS
Description: ELISA, coated cytokine, Ab 10 µg/ml.

The target in assay [8] is T8, recombinant mouse IL-1β (R&D Systems Cat#401-ML) (mouse, UniProt P10749 118-269).
T8 construct: also called mIL-1β
T8 sequence (looked up): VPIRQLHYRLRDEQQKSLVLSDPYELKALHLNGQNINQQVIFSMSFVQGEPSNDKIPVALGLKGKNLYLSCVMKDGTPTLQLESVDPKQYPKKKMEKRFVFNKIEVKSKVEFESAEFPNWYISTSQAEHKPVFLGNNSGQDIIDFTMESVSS
In words: ELISA, coated cytokine, Ab 10 µg/ml.

Assay [9] deals with T1, recombinant human IL-17A (SEQ ID NO: 76). In words: cell-based or functional assay. The source holds these as a separate data set.
The target in assay [10] is T9, recombinant human IL-17C (R&D Systems Cat#1234IL/CF) (human, UniProt Q9P0M4 19-197).
T9 construct: also called huIL-17C; hu IL-17C
T9 sequence (looked up): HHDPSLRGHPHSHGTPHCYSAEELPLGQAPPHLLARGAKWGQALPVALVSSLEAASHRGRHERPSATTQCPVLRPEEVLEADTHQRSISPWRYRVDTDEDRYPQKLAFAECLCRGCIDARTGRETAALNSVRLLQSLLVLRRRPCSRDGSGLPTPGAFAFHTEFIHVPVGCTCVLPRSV
In words: ELISA, coated antigen.

The target in assay [11] is T10, recombinant mouse IL-17F (SEQ ID NO: 84) (mouse, UniProt Q7TNI7 29-161).
T10 construct: also called mIL-17F; rmIL-17F
T10 sequence: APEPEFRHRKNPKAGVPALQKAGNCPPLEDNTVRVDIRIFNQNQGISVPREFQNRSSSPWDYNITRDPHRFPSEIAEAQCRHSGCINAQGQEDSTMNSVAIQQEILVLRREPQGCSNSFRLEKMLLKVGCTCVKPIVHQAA
Description: ELISA, coated antigen.

Changes are numbered by the printed parent chain. In names and notes the source's numbering stands.

B1: XAB4 (antibody, human IgG1, kappa, V domains shown)
VH: EVQLVESGGDLVQPGGSLRLSCAASGFTFSSYWMSWVRQAPGKGLEWVANIKQDGSEKYYVDSVKGRFTISRDNAKNSLYLQMNSLRAEDTAVYYCARDRGSLYYWGQGTLVTVSS
VL: AIQLTQSPSSLSASVGDRVTITCRPSQGINWELAWYQQKPGKAPKLLIYDASSLEQGVPSRFSGSGSGTDFTLTISSLQPEDFATYYCQQFNSYPLTFGGGTKVEIKR
notes: also called MB435 N56Q
Regarding B1, the “IC50, huGROα secretion by BJ cells; stimulus rhuIL-17A (0.5 nM)” value in assay [1] came to 0.44 nM. The O.D. in assay [2] is 0.065 O.D; in [3] it was 0.038 O.D; in [4], 3.29 O.D; in assay [5] it was 0.058 O.D; in assay [6] it was 0.031 O.D; in assay [7] it was 0.054 O.D. Moreover, the O.D. in assay [8] worked out at 0.022 O.D. Further, the “IC50, huIL-6 secretion by BJ cells; stimulus rhuIL-17A (0.5 nM)” value in assay [9] was 0.55 nM. For the same molecule, the binding result in [10] and in [11] was “no binding (tested: 1 µg/ml)” throughout.

B2: XAB1 (antibody, human IgG1, kappa, V domains shown)
VH: B1 VH
VL: B1 VL with N30I, W31S, E32A, Q56N
notes: human IgG1/kappa monoclonal antibody; also called parental XAB1; XAB1 IgG
As to B2, the “IC50, huGROα secretion by BJ cells; stimulus rhuIL-17A (0.5 nM)” value in [1] worked out at 1.39 nM. In addition, the O.D. in [2] was determined as 0.025 O.D; in [3], 0.048 O.D; in assay [4], 2.97 O.D; in [5], 0.009 O.D; in assay [6], 0.038 O.D; in assay [7], 0.022 O.D. Besides, the O.D. in assay [8] was 0.007 O.D. For the same molecule, in [9], the “IC50, huIL-6 secretion by BJ cells; stimulus rhuIL-17A (0.5 nM)” value came to 4.97 nM. The binding result in assay [10] and in [11] was “no binding (tested: 1 µg/ml)” throughout.
